Several values for one entry are separate records, joined by “and”; a condition that tells them apart may be missing. Equal values may be shown once.
B3: Nbs1 (wild-type) (natural protein, human, UniProt O60934 1-754, looked up)
chain: MWKLLPAAGPAGGEPYRLLTGVEYVVGRKNCAILIENDQSISRNHAVLTANFSVTNLSQTDEIPVLTLKDNSKYGTFVNEEKMQNGFSRTLKSGDGITFGVFGSKFRIEYEPLVACSSCLDVSGKTALNQAILQLGGFTVNNWTEECTHLVMVSVKVTIKTICALICGRPIVKPEYFTEFLKAVESKKQPPQIESFYPPLDEPSIGSKNVDLSGRQERKQIFKGKTFIFLNAKQHKKLSSAVVFGGGEARLITEENEEEHNFFLAPGTCVVDTGITNSQTLIPDCQKKWIQSIMDMLQRQGLRPIPEAEIGLAVIFMTTKNYCDPQGHPSTGLKTTTPGPSLSQGVSVDEKLMPSAPVNTTTYVADTESEQADTWDLSERPKEIKVSKMEQKFRMLSQDAPTVKESCKTSSNNNSMVSNTLAKMRIPNYQLSPTKLPSINKSKDRASQQQQTNSIRNYFQPSTKKRERDEENQEMSSCKSARIETSCSLLEQTQPATPSLWKNKEQHLSENEPVDTNSDNNLFTDTDLKSIVKNSASKSHAAEKLRSNKKREMDDVAIEDEVLEQLFKDTKPELEIDVKVQKQEEDVNVRKRPRMDIETNDTFSDEAVPESSKISQENEIGKKRELKEDSLWSAKEISNNDKLQDDSEMLPKKLLLTEFRSLVIKNSTSRNPSGINDDYGQLKNFKKFKKVTYPGAGKLPHIIGGSDLIAHHARKNTELEEWLRQEMEVQNQHAKEESLADDLFRYNPYLKRRR
notes: wild-type Nbs1, component of the human MRN complex; expressed from transfer vector pTP288 / bacmid pTP291; Used apart from MR (added to MR complexes, coated on PMMA beads); source: Sf21 insect cells, baculovirus, purified

Legend:
ATM = biological target: T1, ATM (Homo sapiens, UniProt Q13315, Y2755A); assay: kinase assay, GST-p53 Ser-15 phosphorylation, Western blot; assay type: biochemical; conditions: H2O2-activated ATM without MRN; analog 1 mM; pH 7.5, 5 mM Mg, 30 C
T1 construct: full-length, Flag-tagged and HA-tagged, transiently expressed in human 293T cells, purified as dimer
T1 sequence (Q13315 2-3056 Y2755A): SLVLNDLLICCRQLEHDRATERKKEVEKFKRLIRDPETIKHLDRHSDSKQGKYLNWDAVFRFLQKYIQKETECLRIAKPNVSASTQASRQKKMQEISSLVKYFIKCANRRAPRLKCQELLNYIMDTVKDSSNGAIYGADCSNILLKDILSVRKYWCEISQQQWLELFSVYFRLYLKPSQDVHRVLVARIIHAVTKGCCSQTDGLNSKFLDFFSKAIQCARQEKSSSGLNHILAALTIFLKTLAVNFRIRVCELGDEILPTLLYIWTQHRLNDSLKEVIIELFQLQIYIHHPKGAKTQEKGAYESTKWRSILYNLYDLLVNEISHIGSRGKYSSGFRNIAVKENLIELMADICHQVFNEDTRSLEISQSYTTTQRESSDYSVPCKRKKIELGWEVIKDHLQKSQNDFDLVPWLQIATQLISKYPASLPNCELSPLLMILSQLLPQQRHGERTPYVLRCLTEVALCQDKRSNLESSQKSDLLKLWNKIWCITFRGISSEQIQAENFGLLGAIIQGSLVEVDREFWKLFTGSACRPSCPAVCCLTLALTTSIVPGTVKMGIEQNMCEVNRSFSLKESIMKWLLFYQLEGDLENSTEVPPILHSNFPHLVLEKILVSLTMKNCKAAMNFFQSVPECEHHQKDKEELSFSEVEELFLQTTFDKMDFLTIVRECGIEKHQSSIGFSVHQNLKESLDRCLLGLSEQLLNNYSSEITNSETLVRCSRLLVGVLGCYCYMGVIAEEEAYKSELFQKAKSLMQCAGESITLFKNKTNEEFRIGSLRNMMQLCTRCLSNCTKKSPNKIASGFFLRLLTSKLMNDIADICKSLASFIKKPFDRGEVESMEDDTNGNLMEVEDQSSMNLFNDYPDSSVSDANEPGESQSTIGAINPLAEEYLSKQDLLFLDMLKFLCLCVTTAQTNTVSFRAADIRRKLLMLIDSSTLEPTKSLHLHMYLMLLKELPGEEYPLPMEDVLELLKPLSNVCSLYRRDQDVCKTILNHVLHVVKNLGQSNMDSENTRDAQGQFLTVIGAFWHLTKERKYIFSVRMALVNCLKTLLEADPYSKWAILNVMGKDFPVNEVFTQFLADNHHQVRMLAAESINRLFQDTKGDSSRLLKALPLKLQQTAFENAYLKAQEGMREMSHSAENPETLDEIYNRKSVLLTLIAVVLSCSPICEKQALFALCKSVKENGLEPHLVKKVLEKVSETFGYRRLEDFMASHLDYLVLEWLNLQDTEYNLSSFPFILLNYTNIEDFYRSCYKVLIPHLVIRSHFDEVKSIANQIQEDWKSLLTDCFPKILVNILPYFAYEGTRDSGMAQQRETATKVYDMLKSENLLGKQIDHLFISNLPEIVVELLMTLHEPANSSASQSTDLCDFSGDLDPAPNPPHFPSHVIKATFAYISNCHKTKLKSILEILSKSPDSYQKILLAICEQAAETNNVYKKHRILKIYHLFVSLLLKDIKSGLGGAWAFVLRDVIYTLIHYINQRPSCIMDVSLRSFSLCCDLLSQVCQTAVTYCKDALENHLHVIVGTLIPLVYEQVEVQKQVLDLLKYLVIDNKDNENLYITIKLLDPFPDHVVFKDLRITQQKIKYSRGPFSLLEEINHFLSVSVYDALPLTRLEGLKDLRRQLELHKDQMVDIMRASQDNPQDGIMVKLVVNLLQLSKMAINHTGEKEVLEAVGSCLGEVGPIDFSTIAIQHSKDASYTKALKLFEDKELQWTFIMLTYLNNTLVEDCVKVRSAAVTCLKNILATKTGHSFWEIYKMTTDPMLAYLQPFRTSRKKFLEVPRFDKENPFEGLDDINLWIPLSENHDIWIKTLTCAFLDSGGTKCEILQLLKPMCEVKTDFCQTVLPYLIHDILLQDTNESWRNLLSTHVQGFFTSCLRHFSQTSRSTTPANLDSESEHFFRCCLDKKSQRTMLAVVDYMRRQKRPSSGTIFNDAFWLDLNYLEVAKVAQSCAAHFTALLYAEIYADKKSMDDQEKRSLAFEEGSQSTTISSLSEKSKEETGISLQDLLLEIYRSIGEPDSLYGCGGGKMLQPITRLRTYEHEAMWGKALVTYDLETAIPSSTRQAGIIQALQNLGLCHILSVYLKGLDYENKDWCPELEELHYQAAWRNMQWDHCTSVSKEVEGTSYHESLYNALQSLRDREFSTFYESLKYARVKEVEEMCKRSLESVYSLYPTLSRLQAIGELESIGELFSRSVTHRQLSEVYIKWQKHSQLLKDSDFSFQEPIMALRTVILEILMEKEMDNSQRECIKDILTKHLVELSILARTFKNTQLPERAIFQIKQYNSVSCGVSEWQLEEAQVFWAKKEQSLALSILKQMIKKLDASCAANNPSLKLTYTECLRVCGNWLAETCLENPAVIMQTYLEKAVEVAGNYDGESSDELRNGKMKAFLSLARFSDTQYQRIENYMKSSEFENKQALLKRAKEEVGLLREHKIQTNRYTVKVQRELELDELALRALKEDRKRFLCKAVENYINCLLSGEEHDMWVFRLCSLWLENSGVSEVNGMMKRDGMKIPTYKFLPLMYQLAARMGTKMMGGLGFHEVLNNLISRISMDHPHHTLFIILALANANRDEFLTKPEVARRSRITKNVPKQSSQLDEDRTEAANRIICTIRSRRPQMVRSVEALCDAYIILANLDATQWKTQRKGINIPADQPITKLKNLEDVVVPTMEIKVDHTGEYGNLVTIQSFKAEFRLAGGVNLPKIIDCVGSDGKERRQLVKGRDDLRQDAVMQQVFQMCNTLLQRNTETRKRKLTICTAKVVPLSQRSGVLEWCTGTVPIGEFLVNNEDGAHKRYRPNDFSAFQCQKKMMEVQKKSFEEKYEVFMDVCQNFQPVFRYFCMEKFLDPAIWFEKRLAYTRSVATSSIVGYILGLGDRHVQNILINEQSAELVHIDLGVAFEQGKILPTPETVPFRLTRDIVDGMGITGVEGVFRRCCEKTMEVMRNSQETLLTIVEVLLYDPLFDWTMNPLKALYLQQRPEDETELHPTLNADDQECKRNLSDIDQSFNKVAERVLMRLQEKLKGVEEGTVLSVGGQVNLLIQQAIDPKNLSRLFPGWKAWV

[1] = biological target: Mre11/Rad50 (MR) complex, wild-type full-length (human) (UniProt P49959); assay: scanning force microscopy (SFM); protein alone: 3 nM human MR in 25 mM Tris-HCl pH 8.0, 10% glycerol, 100 mM NaCl, 1 mM DTT; diluted 5-fold in 10 mM HEPES pH 8.0, 20 mM MgCl2, deposited on mica, imaged in air by tapping mode; forms counted by the number of Rad50 coiled-coils
Nbs1 (wild-type) [2] = biological target: B3; assay: KinExA (kinetic exclusion assay); without ATP; 1, 5 and 25 nM MR incubated with 6.1 pM to 400 nM Nbs1 (2-fold dilutions) 1 h at room temperature; free MR captured on Nbs1-coated PMMA beads, detected with anti-Mre11 and Cy5 secondary antibody; PBS; n-Curve Analysis; conditions: both partners purified
Nbs1 (wild-type) [3] = biological target: B3; assay: KinExA (kinetic exclusion assay); in the presence of ATP (concentration not stated); 1, 5 and 25 nM MR incubated with 6.1 pM to 400 nM Nbs1 (2-fold dilutions) 1 h at room temperature; free MR captured on Nbs1-coated PMMA beads, detected with anti-Mre11 and Cy5 secondary antibody; PBS; n-Curve Analysis; conditions: both partners purified
MR(C2G)N = MR(C2G)N (human, UniProt P49959;Q92878;O60934 1-708;1-1312;1-754, C681G;C684G;Rad50); assay: EMSA; 0.5 mM AMP-PNP, 5 mM MgCl2, Nbs1 present; altered mobility and complex formation efficiency vs WT; EMSA (Fig. 6A): 10 nM DNA, 25 mM MOPS pH 7.0, 20 mM Tris pH 8.0, 5 mM MgCl2, 8% glycerol, 80 mM NaCl, 2 mM DTT, 0.5 mM AMP-PNP, temperature not stated; SFM: 25; conditions: protein: recombinant; chain copies: 2;2;1; label: Cy5 at 3' end of TP2109; 41 bp duplex, 4 nt 3' overhang on strand 2, other end blunt
[4] = biological target: Mre11/Rad50/Nbs1 (MRN) wild-type (human, UniProt P49959;Q92878;O60934 1-708;1-1312;1-754); assay: EMSA; 0.5 mM AMP-PNP, 5 mM MgCl2, Nbs1 present, 100-200 nM MR; EMSA (Fig. 6A): 10 nM DNA, 25 mM MOPS pH 7.0, 20 mM Tris pH 8.0, 5 mM MgCl2, 8% glycerol, 80 mM NaCl, 2 mM DTT, 0.5 mM AMP-PNP, temperature not stated; SFM: 25; conditions: protein: recombinant; chain copies: 2;2;2; label: Cy5 at 3' end of TP2109; 41 bp duplex, 4 nt 3' overhang on strand 2, other end blunt
[5] = biological target: T2, Mre11/Rad50 (MR) complex, wild-type full-length (human, UniProt P49959 1-708; Q92878 1-1312); assay: KinExA (kinetic exclusion assay); without ATP; 1, 5 and 25 nM MR incubated with 6.1 pM to 400 nM Nbs1 (2-fold dilutions) 1 h at room temperature; free MR captured on Nbs1-coated PMMA beads, detected with anti-Mre11 and Cy5 secondary antibody; PBS; n-Curve Analysis; conditions: both partners purified
T2 construct: wild-type human Mre11, transfer vector pTP813 / bacmid pTP814; wild-type human Rad50, transfer vector pTP11; 1312 residues by the printed construct limits; The unit written here is one Mre11 with one Rad50; also called wild-type MR; human MR; source: Sf21 insect cells, coexpression with baculovirus, purified

[6] = biological target: T3, Mre11/Rad50(C2G) complex (Rad50 C681G/C684G) (human, UniProt P49959 1-708; Q92878 1-1312, C681G | C684G); assay: KinExA (kinetic exclusion assay); in the presence of ATP (concentration not stated); 1, 5 and 25 nM MR incubated with 6.1 pM to 400 nM Nbs1 (2-fold dilutions) 1 h at room temperature; free MR captured on Nbs1-coated PMMA beads, detected with anti-Mre11 and Cy5 secondary antibody; PBS; n-Curve Analysis; conditions: both partners purified
T3 construct: wild-type human Mre11 (pTP813), as the Mre11 chain of m2; human Rad50 with both zinc hook cysteines mutated; made by QuikChange mutagenesis from pTP11 (the wild-type Rad50 of m2); Zinc hook mutant; also called MR(C2G); C2G MR complex; source: Sf21 insect cells, coexpression with baculovirus, purified

[7] = biological target: T2, Mre11/Rad50 (MR) complex, wild-type …; assay: as above; conditions: both partners purified
[8] = biological target: T4, Mre11/Rad50(C2G) complex (Rad50 C681G/C684G) (human, UniProt P49959 1-708; Q92878 1-1312, C681G | C684G); assay: +ATP
[9] = biological target: T4, Mre11/Rad50(C2G) complex (Rad50 …; assay: -ATP

In the case of `O=P(O)(O)OP(=O)(O)OP(=O)(O)OC[C@H]1O[C@@H](n2cnc3c(NCc4ccco4)ncnc32)[C@H](O)[C@@H]1O` [N6-(furfuryl)-ATP, N6-furfuryladenosine-5′-O-triphosphate], the “kinase assay, GST-p53 Ser-15 phosphorylation, Western blot” value (ATM) is reported as “This nucleotide was utilized by Y2755A ATM but not by wild-type ATM”.

In the case of “Mre11/Rad50 (MR) complex, wild-type full-length, P49959 1-708; Q92878 1-1312”, the stoichiometry N [1] is reported as 2 and > 4.

B1: Mre11/Rad50(DelCC) complex (Rad50 coiled-coil region replaced with a linker) (complex, human)
chain 1: MSTADALDDENTFKILVATDIHLGFMEKDAVRGNDTFVTLDEILRLAQENEVDFILLGGDLFHENKPSRKTLHTCLELLRKYCMGDRPVQFEILSDQSVNFGFSKFPWVNYQDGNLNISIPVFSIHGNHDDPTGADALCALDILSCAGFVNHFGRSMSVEKIDISPVLLQKGSTKIALYGLGSIPDERLYRMFVNKKVTMLRPKEDENSWFNLFVIHQNRSKHGSTNFIPEQFLDDFIDLVIWGHEHECKIAPTKNEQQLFYISQPGSSVVTSLSPGEAVKKHVGLLRIKGRKMNMHKIPLHTVRQFFMEDIVLANHPDIFNPDNPKVTQAIQSFCLEKIEEMLENAERERLGNSHQPEKPLVRLRVDYSGGFEPFSVLRFSQKFVDRVANPKDIIHFFRHREQKEKTGEEINFGKLITKPSEGTTLRVEDLVKQYFQTAEKNVQLSLLTERGMGEAVQEFVDKEEKDAIEELVKYQLEKTQRFLKERHIDALEDKIDEEVRRFRETRQKNTNEEDDEVREAMTRARALRSQSEESASAFSADDLMSIDLAEQMANDSDDSISAATNKGRGRGRGRRGGRGQNSASRGGSQRGRADTGLETSTRSRNSKTAVSASRNMSIIDAFKSTRQQPSRNVTTKNYSEVIEVDESDVEEDIFPTTSKTDQRWSSTSSSKIMSQSQVSKGVDFESSEDDDDDPFMNTSSLRRNRR
chain 2: MSRIEKMSILGVRSFGIEDKDKQIITFFSPLTILVGPNGAGKTTIIECLKYICTGDFPPGTKGNTFVHDPKVAQETDVRAQIRLQFRDVNGELIAVQRSMVCTQKSKKTEFKTLEGVITRTKHGEKVSLSSKCAEIDREMISSLGVSKAVLNNVIFCHQEDSNWPLSEGKALKQKFDEIFSATRYIKALETLRQVRQTQGQKVKEYQMELKYLKQYPPAAAGGYREMMIVMRTTELVNKDLDIYYKTLDQAIMKFHSMKMEEINKIIRDLWRSTYRGQDIEYIEIRSDADENVSASDKRRNYNYRVVMLKGDTALDMRGRCSAGQKVLASLIIRLALAETFCLNCGIIALDEPTTNLDRENIESLAHALVEIIKSRSQQRNFQLLVITHDEDFVELLGRSEYVEKFYRIKKNIDQCSEIVKCSVSSLGFNVH
notes: wild-type human Mre11 (pTP813), as the Mre11 chain of m2; human Rad50 N terminus, amino acids 1-216; linker peptide between the two Rad50 domains; human Rad50 C terminus, amino acids 1104-1312; The His tag is inferred from the vector name only; also called MR(DelCC); DelCC MR; source: Sf21 insect cells, coexpression with baculovirus (Bac-to-Bac), purified
B1 was tested, and the Kd (Nbs1 (wild-type) [2]) was 17700 pM and the Kd (Nbs1 (wild-type) [3]) was 50.3 pM.

B2: TP2151/TP2109 (dsDNA)
DNA 1: CTTGCATGCCTCAGCTATTCCGGATTATTCATACCGTCCCA
DNA 2: TGGGACGGTATGAATAATCCGGAATAGCTGAGGCATGCAAGTCTA
B2: binds (MR(C2G)N); binds [4].

In the case of B3, the Kd [5] is reported as 9.17 pM, the “fold higher affinity in the presence of ATP than in the absence of ATP” value [6] is reported as about 70 fold and the Kd [7] is reported as 3.82 pM. For the same molecule, the Kd [8] was 110 pM and the Kd [9] was 7300 pM.

From paper PMC3642328, “Ataxia Telangiectasia-Mutated (ATM) Kinase Activity Is Regulated by ATP-driven Conformational Changes in the Mre11/Rad50/Nbs1 (MRN) Complex*^([image sbox.jpg])” (The Journal of Biological Chemistry, 2013)
